The DeepSol protein solubility set

Experiment: soluble on expression in E. coli; label from the status in PepcDB or PDB records

Sequence	soluble on expression in E. coli
MKIKIFIITSLIILTSVSCRRNVFNPSIPNRTQFVEDPIANLSIPSKDAAVEVIPVESIYKTGQTSLIYNWYIHFFDFNGKYYLTARDKCSYDSANKTMIITNNSYYNLLEIDVNDNFYMKEIRTNIDSSIPDDNRIINAFTKIVNGEAYTNADTIFIQDGGKYYSSKNIITWTEISQIPSDASKKEATDQYKIPITAQNGKTYTYVYASGAREFSISRLSDRMKQLAKRLETKFDFKEEDFNNHHMFDIGLNENGSSNPDFRLNPTNYLNNDTNYVYMGATDAAGQLWLLPVKKNGKDYLVRLPEHGGPELYIISDLQNDMNTYQTKAQESLTKALSLAASGGDTSAIEDACYESILNDANYKANKYFLDVIDKMGAKVNFGTTVYATSSKPITHYVIDIVDIQKD	not soluble
MHHHHHHSSGVDLGTENLYFQSMSHQVGVAGAVFDESTRKILVVQDRNKLKNMWKFPGGLSEPEEDIGDTAVREVFEETGIKSEFRSVLSIRQQHTNPGAFGKSDMYIICRLKPYSFTINFCQEECLRCEWMDLNDLAKTENTTPITSRVARLLLYGYREGFDKIDLTVEELPAVYTGLFYKLYHKELPENYKTMKGID	soluble
MNQSADAKPPKPDGRVTRSVTVRKLGPGANKEKQESDNSQKKKTVNAAAQKADTSSKRNSGNPQKPKKPKHEAIKVSTRRLSASSKPPPPAPQNVPKMNSFVGNGNTRMIMVQTTPQAKKLEAEMKLRMQNKGESPEASLLVLESRTPEPTVQQVLEELQNDVVNPKSSTTPEGYSFELRNLKTPEIPAMPTPLACSPAAARNSPVVKKIQNHVPNVTLVPSEPREPSLRKLHLGTLKLKFLAFPLTTGFKKLQKLQDPLARIKLATEKLKERRAQLDTQKKHTMFLPEAFIGPHFNETIASGFYALFNASHFQVHYNSEGKRLGSGTMCVLKNQMNGARDWFAGNTWRAVKMMYMRTRDAEKHKNSEVKLFVEKLPDWSTEQLEEKLRNEFKLSDFQLLYDYKGNNLRSAIVLLKYPDAINLCNSIRSNPTVFGKEWHPRVFEVLDVAVQPPIDK	not soluble
MTTATSTEPTLELQRLELAELINRHAGEPFGPASAIDDLYLVRYTENVRSVPTLAQPALCILAQGSKSLFLGDEQYAYDPLHYMVVSVTLPLSAVRLDASPENPSLGLRMDLDPAEISQLIAESGPMLVPNRPSGRGLYVERTDAALLDALLRLLRLLDTPRDIAMLAPLFRREILYRLLRGPQGYRLYEIALANSQTHRVCQAITWLNNNFQQPLRIEDLAREVNLSTSTLHHRFKAVTSMSPLQYQKQLRLQEARRLMLNDGLEAAVAAYRVGYESPSQFSREYSRLYGAPPIRDVARLRATAV	not soluble
MGSDKIHHHHHHMTQPPQSLQIKLANPRGFCAGVDRAISIVERALELFSPPIYVRHEVVHNRYVVQNLKDRGAVFVDELDQVPDDSIVIFSAHGVSQAVRAEAKKRGLRVFDATCPLVTKVHLQVTRASRKGIECILIGHAGHPEVEGTMGQYDNPEGGVLLVESPADVEALVVKDPDNLCFVTQTTLSMDDTADVIAALQKRFPSIQGPRKDDICYATQNRQDAVRNVADDVDLFIVVGSKNSSNSNRLMELAIKKGTQSYLVDNADDIKPEWFNDIEKVAVTAGASAPEVLVQQVIDAIAKLAPSVITEVEGRKEDTVFAVPAELR	not soluble
MAELYVKPGNKERGWNDPPQFSYGLQTQTGGPKRTPLTKRVAAPQDGSPRAPETSGPPPVDHPPPSSKASRPPPMGSCPATGVEPPSSPVIESETLIEDVLRPLEQALEDCHGHTKKQVCDDISRRLALLREQWAGGKLSIPVKKRMALLVQELLHHQWDAADDIHRSLMVDHVTEVSQWMVGVKRLIAEKKSLSSEETKEEKFTVEPENQTIPGFQQPS	soluble
MAHHHHHHMGTLEAQTQGPGSMREVLVPYAGVSPSVDSTAFIAGNARIIGDVCIGKNASIWYGTVLRGDVDKIEVGEGTNIQDNTVVHTDSMHGDTVIGKFVTIGHSCILHACTLGNNAFVGMGSIVMDRAVMEEGSMLAAGSLLTRGKIVKSGELWAGRPAKFLRMMTEEEILYLQKSAENYIALSRGYL	soluble
MAHHHHHHMPQKPLFFIYFFFFQDTPDFGGVDTQTNNNNKKRGFTRDGRGKLAGGDAHSRRDRRMRLRGWGHTAFQTRLNGSRCWGSRGASSASQCVALRSASSSFSMSTSRSPFDAVYVINLNRRPDRWKFILRQLQRAGFREGEYERFTAVDGRAVDIQKAQACGLVSLLGILRLREEESRRIWGMDLNPAAVGCALSHVLLWATIAARRYHRVLVVEDDSLFPHDFQKKYDERMRHVPQDWELVYVSGLDTADQTSQLRVAEGVSRVPQMHRTTNCYVVTHHGARRLLELCLPMTYQLDTMMTMHAVSDPQSGVPHVTSPVCYTLQPPLVVQATRMGSDIQSSNGRDEQEEERARCRAAGWTTD	soluble
KETAAAKFERQHMDSGGGGSGHMENGYTYEDYKNTAEWLLSHTKHRPQVAIICGSGLGGLTDKLTQAQIFDYGEIPNFPRSTVPGHAGRLVFGFLNGRACVMMQGRFHMYEGYPLWKVTFPVRVFHLLGVDTLVVTNAAGGLNPKFEVGDIMLIRDHINLPGFSGQNPLRGPNDERFGDRFPAMSDAYDRTMRQRALSTWKQMGEQRELQEGTYVMVAGPSFQTVAECRVLQKLGADAVGMSTVPEVIVARHCGLRVFGFSLITDKVIMDYESLEKANHEEVLAAGKQAAQKLEQFVSILMASIPLPDKAS	soluble
MKRKFLIGSHGRLASGLQSSIDILAGMGQALETIDAYVDDSDYTSQIDDFIAGVAADEQGLIFTDLLGGSVNQKMVTAVMNSGKDNIFLITNSNLATLLSLVFLKPGEALTKDEIVTVINESQVQLVDLVPETNSEDDFFD	not soluble
MISSNSSSTSLNVETDYPTNGKKPLKEGSVQLTSLSTLLSHHRYFFLYHETLIISKQKGACSYKLKEKLRLEKVWIASSNTADSFLIGWPFTNYLVHFRNTEEKDEWFELLSCCVQQCLRPLFTTISMEINVRGRKQTIRRRVDNGKKSGEIVVDTAGDLGLPHTSYQLTLSFGDNSHRQLQGPENVYVAIMSEIERQGTRLSESQKQALDTCPIANCRLILSTIKSTSGPSAKQLVNSIKKKVLTRTDSRSIFGKGLNGPTPPQPIMTIVDHLRMDGFDAEGIFRKSPKQSTFKELKCELDKGVVPDFHKYNTHVLASILKEYLRSIPGKILLSGNYELWMREIADEPNTEKKVSCCRALLSHLPTSHSILLANVLKLLNKISNSPSSKMNASSLSVCLAPSFLESPDPMEGGKKIPPLIEFLISHAAQVMPGFSTDNVFAIMTSPMVDHNANMVCSPAPSSSHSDDGGSSQKTPIIEELNDADDATSQSSLAESDLPDEPRGTSAHLETISEISEPPTNDERLVFSSSEDEDDDDEDELRVYRPKSSTSTSSCFARTSFVSETLKTSADDGDKGLNKETPRSPCLKRIHFQRTEAQHRNKEGNIKLDFEALKFHRPSVRKSSLEEVARKNSAEFFHHSREPSDAAVTPTPPKNGSTMRKESREEATQTADCGLPHISSNDDSDSRFPAFKSSSVAMLTEPYKSSSSSSSSTSSIPSDPAPRPYFLKEEYTSLANKPTVQVAPFSQEPSLKTINDRLNALRQNSILAQEVPQEPVMTSSRLRSEATKSLTNSPIMPRSYGGSLMQKDREEHSFVADDFYKASSRKPELQRSSSQRGLTSMNNNNNSTKQIYGARPSSLKTPRRFAGAGGVEACVGMDPLEINWSVSQLKTLFQDTKAPSIDTTYNMN	not soluble
MQNELQTALFQAFDTLNLQRVKTFSVPPVTLCGPGSVSSCGQQAQTRGLKHLFVMADSFLHQAGMTAGLTRSLTVKGIAMTLWPCPVGEPCITDVCAAVAQLRESGCDGVIAFGGGSVLDAAKAVTLLVTNPDSTLAEMSETSVLQPRLPLIAIPTTAGTGSETTNVTVIIDAVSGRKQVLAHASLMPDVAILDAALTEGVPSHVTAMTGIDALTHAIEAYSALNATPFTDSLAIGAIAMIGKSLPKAVGYGHDLAARESMLLASCMAGMAFSSAGLGLCHAMAHQPGAALHIPHGLANAMLLPTVMEFNRMVCRERFSQIGRALRTKKSDDRDAINAVSELIAEVGIGKRLGDVGATSAHYGAWAQAALEDICLRSNPRTASLEQIVGLYAAAQ	soluble
RGKVFLEAQEKYEVNVIYLVSHALVETGNGKSELAKGIKDGKKRYYNFFGIGAFDSSAVRSGKSYAEKEQWTSPDKAIIGGAKFIRNEYFENNQLNLYQMRWNPENPAQHQYASDIRWADKIAKLMDKSYKQFGIKKDDIRQTYYK	not soluble
MSLGSGHIRAAEALQKFVVQKYPKSKTLIVDTFKYINPLIHTVVVDGYLNIVKYVPEIYGGLYRMSEHIKNIDRMSRGFSNLLTPKIHRLIQSFKPSIIVCTHPFPLQMIAHLKKHYNLDVPSIAIVTDFVNHPFWFQNNIEAYIVAHDYIKRDMIECGISEDRIFTYGLPVAPEFLKLEHHHHHH	not soluble
MGSDKIHHHHHHMSNFGRQIEAFRAVMLTGGMTTAAETLRITQPAISRLIRDLEDDLKIALFHRRGNQITPTVEATAFLAEVERSYLGMDQLRTFAVDLRNSLTGSLRIAALPAMALGFMPYCLAKFSGTRPKLSITLDGIPSHLVLERVAGGQFELGFAAVPADRPMLNTTPIKARAVVVMPEGHPLAKNETVSADQLRNERIVMLDRGNYLRHTIERALGTRAGSPGAIETPLSAIACSFVARGLGVTIIDAFTAINFLGRGIEARLLVPELDFGFAMVTAQQRPMSQLARQFAQEIHLLAEEYQSPIFG	not soluble
MELDVFAGQEKSELSMIEVARAILETRGRDKEMYFNDLVNEIQNYLEKSDADIRSSLPFFYSDLNTDGSFIPLGDNKWGLRSWYAIDEIDEEVITLEDIDENAPKRKNKKVNAFMDGDEDAIDYNDDDPEDENFTPSSAILEYDNDNEDDENAEVESYDSELNEIIPDDDLDDVELSEEDDDDDDDYEDETND	not soluble
PFSWMRYIVISRKDLEEDGREILIHEMAHIQNRHSIDLLVADICIFFQWFNPGIWLLKQELQNIHEYEADETVINEGIDAKDYQLLLI	not soluble
MVLVLAEIITVGDELLTGNTVDSNSAYIAQRLTEKGFWVRRITTVGDDVKEIENAVREAISRKPEVLIISGGLGPTHDDVTMLGVANAIGRKLKLCEDCLERIKEFYEELHRKGLIDDPTLNEARKKMAYLPEGSEPLNNTEGAAPGAYVEYEGVKIFILPGMPREMKAMLESEVLPRLGERKFVQKKFLAEITDESKLAPILEDTIERFKVKIHSSPKGFGKYIGIIIFAEDDEVIGKVIRYIEGKGIKFREGW	soluble
MGHHHHHHSHMKVAQAKLKEIGPDDMNMEEYKKWHEDYSLFRKVSVYLLTGLELYQKGKYQEALSYLVYAYQSNAALLMKGPRRGVKESVIALYRRKCLLELNAKAASLFETNDDHSVTEGINVMNELIIPCIHLIINNDISKDDLDAIEVMRNHWCSYLGQDIAENLQLCLGEFLPRLLDPSAEIIVLKEPPTIRPNSPYDLCSRFAAVMESIQGVSTVTVK	not soluble
MTFLDKIKQGCLDGWAKYKILPSLTAAQAILESGWGKHAPHNALFGIKADASWTGKSFNTKTQEEYQAGVITDIVDRFRAYDSWDESIADHGQFLVDNPRYQSVIGEADYKKACHAIKDAGYATASGYAELLIQIIEENNLQKWDKEAIVRKEKQMINSQCREVIEFFINLANAGMGVDKDSFAGWQCADVPCYAAKHWFDVDLWGNAIDLLDSAAAVGWEVHRMPTDANPLTGAFFVQSVPYHQFGHTGIVIEDSDGYTMRTVEQNIDGNPDALYVGAPARFNTRDFTGVIGWFYPPYQGDTVTQPVSTEPQTSETIVETAKTGTFTLDVAEINIRRWPSLASEVVGSYKQGDTVSFDNEGYANGYYWISYVGGSGMRNYLGIGQTDKDGNRISLWGKLNLEHHHHHH	soluble
